Reference: PMC8058080

Target: Acaryochloris marina photosystem I (PSI) monomer, 11 subunits (PsaA, PsaB, PsaC, PsaD, PsaE, PsaF, PsaJ, PsaK, PsaL, PsaM, Psa27) (Acaryochloris marina) (UniProt B0C474)
Experiment: cryo-EM structure; PSI trimer purified from A. marina; 50 mM MES-NaOH pH 6.5, 5 mM CaCl2, 10 mM MgCl2, 0.002% LMNG; 2.58 Å with C3 symmetrization, 2.97 Å without

For “Acaryochloris marina photosystem I (PSI) monomer, 11 subunits (PsaA, PsaB, PsaC, PsaD, PsaE, PsaF, PsaJ, PsaK, PsaL, PsaM, Psa27) (from UniProt B0C474 1-753; B0C475 1-736; B0CB42 1-81; B0C8F1 1-139; B0C5D5 1-89; B0C7S7 1-167; B0C7S6 1-51; B0C7S4 1-153; B0C4H4 1-31) (complex)”, which stoichiometry N is on record?
The stoichiometry N was 3.
